Measurements published in patent US20110059095A1 (Regeneron, published 2011).
Where no end group is shown, it is not given here. The star is where a group is joined. Biotin = O=C1N[C@H]2[C@H](CS[C@H]2CCCCC(=O)*)N1

T1: Peptide B (human PAR-2), unbiotinylated (Human)
T1 construct: also called Peptide B No Biotin
T1 peptide: SLIGKVDGTSHVTG

T2: Peptide B (human PAR-2), C-terminal biotinylated (Human, not fully specified)
T2 construct: also called Peptide B C-Term
T2 peptide: SLIGKVDGTSHVTGGGGGS-biotin

T3: Peptide A (human PAR-2), unbiotinylated (Human)
T3 construct: also called Peptide A No Biotin
T3 peptide: GTNRSSKGRSLIGKVDGT

T4: Peptide C (human PAR-2), N-terminal biotinylated (Human)
T4 construct: also called Peptide C N-Term
T4 peptide: Biotin-GGGGSSLIGKV

T5: Peptide B (human PAR-2), N-terminal biotinylated (Human)
T5 construct: also called Peptide B N-Term
T5 peptide: Biotin-GGGGSSLIGKVDGTSHVTG

T6: Peptide A (human PAR-2), N-terminal biotinylated (Human, N-terminal biotin via G4S linker)
T6 construct: also called Peptide A N-Term
T6 peptide: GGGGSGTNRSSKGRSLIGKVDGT

T7: Peptide C (human PAR-2), C-terminal biotinylated (Human)
T7 construct: also called Peptide C C-Term
T7 peptide: SLIGKVGGGGS-biotin


Legend:
[1] = target: T1, Peptide B (human PAR-2), unbiotinylated; assay: peptide ELISA
Description: (§1) Anti-PAR-2 antibodies were tested for their ability to bind to the PAR-2 peptides. Various PAR-2 Peptides (Table 3) were coated onto 96-well plates at a concentration of 2 μg/ml and incubated overnight followed by blocking in a suitable blocking agent for one hour. […] Purified anti-PAR-2 antibodies were added to the plate coated with PAR-2 peptides to a final concentration ranging from 0.2 to 2.0 μg/ml and incubated for one hour at room temperature. Detection of bound antibodies was determined with Horse-Radish Peroxidase (HRP) conjugated anti-mouse or human IgG (Jackson Immuno Research Lab, West Grove, Pa.) and developed by standard colorimetric response using tetramethylbenzidine (TMB) substrate. Absorbance was read at OD₄₅₀ for 0.1 second.

[2] = target: T2, Peptide B (human PAR-2), C-terminal …; assay: peptide ELISA
Description: as §1

[3] = target: T3, Peptide A (human PAR-2), unbiotinylated; assay: peptide ELISA
Description: as §1

[4] = target: T4, Peptide C (human PAR-2), N-terminal …; assay: peptide ELISA
Description: as §1

[5] = target: T5, Peptide B (human PAR-2), N-terminal …; assay: peptide ELISA
Description: as §1

[6] = target: T8, Peptide A (human PAR-2), C-terminal biotinylated (Human, C-terminal biotin via G4S linker); assay: peptide ELISA
T8 construct: also called Peptide A C-Term
Description: as §1

[7] = target: T6, Peptide A (human PAR-2), N-terminal …; assay: peptide ELISA
Description: as §1

[8] = target: T3, Peptide A (human PAR-2), unbiotinylated; assay: SPR, antibody captured, steady state
Description: Equilibrium dissociation constants (KD values) for antigen binding to selected purified PAR-2 antibodies were determined by surface kinetics using a real-time surface plasmon resonance biosensor assay. Antibody was captured on either a rabbit anti-mouse IgG polyclonal antibody (GE Healthcare, Piscataway, N.J.) surface or a goat anti-human IgG polyclonal antibody (Jackson Immuno Research Lab, West Grove, Pa.) surface created through direct amine chemical coupling to a BIACORE™ CM5 sensor chip to form a captured antibody surface. […] Antigen-antibody binding and dissociation were monitored in real time at room temperature. Kinetic analysis was performed to calculate KD and half-life of antigen/antibody complex dissociation (Table 10). For those antibodies where no T_{1/2} value is shown, steady state analysis was used to calculate the KD value. NB: no binding observed under current experimental conditions. ND: not determined.

[9] = target: T7, Peptide C (human PAR-2), C-terminal …; assay: peptide ELISA
Description: as §1

| Binder | OD450 [1] | OD450 [2] | OD450 [3] | OD450 [4] | OD450 [5] | OD450 [6] | OD450 [7] | Kd [8] | OD450 [9] |
| --- | --- | --- | --- | --- | --- | --- | --- | --- | --- |
| H1M595N (antibody, V domains shown, chimeric: human variable, mouse constant domains) VH: EVQLVESGGGLVQPGGSLRLSCAASGFTFSSYDMHWVRQVTGKGLEWVSVIGTVGDTYYPGSLKGRFTISRENAKNSLYLQMNTLRAGDTAVYYCARTGAAAHSYYYGMDVWGQGTMVTVSS VL: not shown | 0 to 0.09 od | 0 to 0.09 od | 1 to 4 od | 0.5 to 0.99 od | 0 to 0.09 od | 1 to 4 od | 1 to 4 od | 510 nM |  |
| H1M592N (antibody, V domains shown, chimeric: human variable, mouse constant domains) VH: EVQLVESGGGLVQPGRSLRLSCAASGFTFDDYAMHWVRQAPGKGLEWVSGISWNSGSIGYADSVKGRFTISRDNAKNSLYLQMNSLRAEDTALYYCAKDRFPPYKYNSGGFSDAFEIWGQGTMVTVSS VL: not shown |  |  | 1 to 4 od | 1 to 4 od | 0.5 to 0.99 od |  | 1 to 4 od | 2100 nM |  |
| H1M612N (antibody, V domains shown, chimeric: human variable, mouse constant domains) VH: EVQLVESGGGLVQPGRSLRLSCAASGFTFDDYAMHWVRQAPGKGLEWVSGITWNSGNMAYADSVKGRFTISRDNAKNSLYLQMNSLRAEDTALYYCAKENWAFDYWGQGTRVIVSS VL: not shown | 0 to 0.09 od | 0 to 0.09 od | 1 to 4 od | 0 to 0.09 od | 0 to 0.09 od | 1 to 4 od | 1 to 4 od | 180 nM | 0 to 0.09 od |

The remaining lines, values ahead:

| OD450 [1] | OD450 [2] | OD450 [3] | OD450 [4] | OD450 [5] | OD450 [6] | OD450 [7] | Kd [8] | OD450 [9] | Binder |
| --- | --- | --- | --- | --- | --- | --- | --- | --- | --- |
|  |  | 1 to 4 od | 1 to 4 od | 0.5 to 0.99 od |  | 1 to 4 od | 2100 nM |  | H1M613N (antibody, V domains shown, chimeric: human variable, mouse constant domains) VH: EVQLVESGGGLVQPGRSLRLSCAASGFTFDDYAMHWVRQAPGKGLEWVSGISWNSGSIGYADSVKGRFTISRDNAKNSLYLQMNSLRAEDTALYYCAKDRFPPYKYNSGGFSDAFEIWGQGTMVTVSS VL: not shown |
| 0 to 0.09 od | 0 to 0.09 od | 1 to 4 od | 0 to 0.09 od | 0 to 0.09 od | 1 to 4 od | 1 to 4 od |  | 0 to 0.09 od | H2M609N (antibody, V domains shown, chimeric: human variable, mouse constant domains) VH: EVQLVESGGGLVQPGRSLRLSCAASGFTFDDYAMHWVRQAPGKGLEWVSGISWNSGSKGFADSVKGRFTISRDNAKNSLYLQMNSLRVEDTALYYCAKENWSFDYWGQGTLVTVSS VL: DIVMTQTPLSSPVTLGQPASISCRSSQSLVHSDGNIYLSWLQQRPGQPPRLLIYKISNRFSGVPDRFSGSGAGTDFTLKISRVEAEDVGIYYCMQASHFPYTFGQGTKLEIK |
| 0 to 0.09 od | 0 to 0.09 od | 0.5 to 0.99 od | 0 to 0.09 od | 0 to 0.09 od | 1 to 4 od | 1 to 4 od | 470 nM | 0 to 0.09 od | H2M614N (antibody, V domains shown, chimeric: human variable, mouse constant domains) VH: EVQLVESGGGLVQPGRSLRLSCAASGFTFDDYAMHWVRQVPGKGLEWVSGITWNSGSIDYADSVKGRFTISRDNAKNSLYLQMNSLRAEDTAFYYCVKEDEAFDYWGQGTLVTVSS VL: not shown |
| 0 to 0.09 od | 0 to 0.09 od | 1 to 4 od | 0 to 0.09 od | 0 to 0.09 od | 1 to 4 od | 0.5 to 0.99 od |  | 0 to 0.09 od | H3M620N (antibody, V domains shown, chimeric: human variable, mouse constant domains) VH: EVQLVESGGNVVRPGGSLRLSCAASGFTFDDYGMTWVRQVPGKGLEWVSGINWNGGSTDYADSVKGRFTISRDNAKNSLYLQMNSLRAEDTALYYCARDKGFYGMDVWGQGTTVTVSS VL: DIVMTQSPDSLAVSLGERATINCKSSQNPLYNSNKKKYLAWYQQKPGQPPKLVIYWASTRESGVPDRFSGSGSGTDFTLTITSLQAEDVAVYYCQQYYSTPYTFGQGTKLEIK |
